Data published in patent publication US20110166032A1, “Design and Use of Sortilin Specific Molecular Imaging Ligands” (H. LUNDBECK A/S, priority 2008, published 2011).
Substitutions are numbered along the chain they refer to. No end group written: not given here.

T1: immobilized sSortilin (Homo sapiens, UniProt Q99523)
T1 construct: His6 (C); made in house; host or cells: CHO-K1
T1 sequence (Q99523 78-755): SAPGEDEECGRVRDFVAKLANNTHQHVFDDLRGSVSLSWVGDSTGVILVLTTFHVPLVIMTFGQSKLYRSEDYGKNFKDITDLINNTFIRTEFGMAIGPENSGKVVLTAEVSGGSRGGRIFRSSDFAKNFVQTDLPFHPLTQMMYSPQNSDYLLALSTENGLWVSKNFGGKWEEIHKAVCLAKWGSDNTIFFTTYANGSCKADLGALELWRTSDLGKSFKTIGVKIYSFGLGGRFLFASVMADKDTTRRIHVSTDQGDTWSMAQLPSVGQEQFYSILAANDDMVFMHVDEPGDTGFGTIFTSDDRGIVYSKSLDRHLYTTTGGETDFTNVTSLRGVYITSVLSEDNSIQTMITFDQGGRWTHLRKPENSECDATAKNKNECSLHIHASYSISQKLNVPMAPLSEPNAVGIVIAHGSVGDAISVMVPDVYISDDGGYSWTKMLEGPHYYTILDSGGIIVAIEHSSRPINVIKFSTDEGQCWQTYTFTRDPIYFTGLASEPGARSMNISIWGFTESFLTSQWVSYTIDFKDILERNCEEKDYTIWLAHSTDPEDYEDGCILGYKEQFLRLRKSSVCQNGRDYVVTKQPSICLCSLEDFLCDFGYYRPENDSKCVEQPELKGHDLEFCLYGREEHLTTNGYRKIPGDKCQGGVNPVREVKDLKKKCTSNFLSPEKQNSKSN

T2: sSortilin S316E mutant (Homo sapiens, UniProt Q99523, S316E)
T2 construct: His6 (C); made in house; host or cells: CHO cells
T2 sequence (Q99523 78-755 S316E): T1 sequence (Q99523 78-755) with S239E

T3: Soluble Sortilin (sSortilin), luminal domain of human Sortilin fused C-terminally to His6 (human, UniProt Q99523 78-755)
T3 construct: Expressed in CHO-K1 cells; 1; also called wtSortilin; wt sSortilin
T3 sequence: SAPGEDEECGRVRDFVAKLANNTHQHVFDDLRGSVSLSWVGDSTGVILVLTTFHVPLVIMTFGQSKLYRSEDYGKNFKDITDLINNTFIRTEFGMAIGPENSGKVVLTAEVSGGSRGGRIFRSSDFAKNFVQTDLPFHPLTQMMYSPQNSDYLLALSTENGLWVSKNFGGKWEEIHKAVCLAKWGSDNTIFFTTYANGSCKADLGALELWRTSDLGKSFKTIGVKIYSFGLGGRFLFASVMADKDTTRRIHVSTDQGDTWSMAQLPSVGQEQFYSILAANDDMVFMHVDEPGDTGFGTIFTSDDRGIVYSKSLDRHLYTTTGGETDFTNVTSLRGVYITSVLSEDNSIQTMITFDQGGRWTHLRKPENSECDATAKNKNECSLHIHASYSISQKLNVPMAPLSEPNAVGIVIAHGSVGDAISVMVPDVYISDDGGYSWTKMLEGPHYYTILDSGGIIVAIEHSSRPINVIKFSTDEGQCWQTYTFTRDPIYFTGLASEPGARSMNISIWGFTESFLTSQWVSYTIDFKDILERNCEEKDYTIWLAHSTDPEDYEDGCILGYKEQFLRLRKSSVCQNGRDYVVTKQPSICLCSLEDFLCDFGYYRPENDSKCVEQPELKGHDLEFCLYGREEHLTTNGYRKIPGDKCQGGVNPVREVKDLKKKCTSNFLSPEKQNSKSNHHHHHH

T4: sSortilin S316E mutant (human, UniProt Q99523 78-755)
T4 construct: those of wt sSortilin are used
T4 sequence: T3 sequence with S239E

B1: propeptide of Nerve Growth Factor (NGFpro), E. coli expressed, His6 tag removed by TEV (ligand)
chain: EPHSESNVPAGHTIPQVHWTKLQHSLDTALRRARSAPAAAIAARVAGQTRNITVDPRLFKKRRLRSPRVLFSTQPPREAADTQDLDFEVGGAAPFNRTHRSKR
notes: also called NGF propeptide; pro-domain of Nerve Growth Factor
B2: NGFpro: propeptide of Nerve Growth Factor, amino acid residues 19 to 121 of SEQ ID NO 6 (protein)
chain: B1 chain
modifications: left off: a dimerising Fc or GST
B3: BDNF: Mature BDNF (SEQ ID NO. 7) purchased from R&D Systems (protein, listed as Homo sapiens)
chain: MTILFLTMVISYFGCMKAAPMKEANIRGQGGLAYPGVRTHGTLESVNGPKAGSGLTSLADTFEHVIEELLDEDQKVRPNEENNKDADLYTSRVMLSSQVPLEPPLLFLLEEYKNYLDAANMSMRVRRHSDPARRGELSVCDSISEWVTAADKKTAVDMSGGTVTVLEKVPVSKGQLKQYFYETKCNPMGYTKEGCRGIDKRHWNSQCRTTQSYVRALTMDSKKRIGWRFIRIDTSCVCTLTIKRGR
modifications: SIGNAL (1)..(18) Signal peptide of BDNF
B4: GST-tagged Sortilin propeptide (GST-Sort-pro) (other)
chain: QDRLDAPPPPAAPLPRWSGPIGVSWGLRAAAAGGAFPRGGRWRR
modifications: also: fused to GST, order and linker not given here
notes: the construct is 'as previously described (5)'; also called Sortilin propeptide fused to GST; not shown: glutathione S-transferase (GST) tag

How the values were obtained:
immobilized sSortilin = molecular target: T1, immobilized sSortilin; experiment: Surface plasmon resonance: inhibition of ligand binding to immobilized sSortilin by Neurotensin derived peptides; settings: for inhibition of Sortilin's binding of its own propeptide (Sort-pro): GST-Sort-pro binding to immobilized sSortilin, FIG. 3A+B
Protocol: (§1) Surface plasmon resonance (SPR) measurements were performed on a BIAcore 2000 instrument (Biacore Sweden) equipped with CM5 sensor chips maintained at 20° C. A continuous flow of HBS buffer (10 mM HEPES pH 7.4, 3.4 mM EDTA, 150 mM NaCl, 0.005% surfactant P20) passing over the sensor surface was maintained at 5 μl/min. […] A sortilin solution (320 μl, 5 μg/ml in 10 mM sodium acetate pH 4.0) was then injected over flow cells 1 and 2 at a flow rate of 15 μl/min. Remaining binding sites in all three flow cells were blocked by injection (5 μl/min) of 70 μl of 1 M ethanolamine pH 8.5. […] Screening of the samples was performed by injecting aliquots of 50 μl, at concentrations of 0.1-8 μM, through all flow cells with a flow rate of 5 μl/min. Unless otherwise stated, the samples were dissolved in 10 mM HEPES pH 7.4, 150 mM NaCl, 1.5 mM CaCl2, 1 mM EGTA, 0.005% surfactant P20. Sample buffer was also used as running buffer. The BIAcore response is expressed in relative response units (RU), i.e. the difference in response between the immobilized protein flow cell and the corresponding control flow cell (activated and blocked but without protein). Regeneration of the sensor chip after each cycle of analysis was performed by injecting 20 μl of 10 mM glycine/HCl pH 4.0, 500 mM NaCl, 20 mM EDTA and 0.005% surfactant P20. For calciumfree conditions, HBS containing 20 mM EDTA was used as sample as well as running buffer.

sSortilin S316E mutant [1] = molecular target: T2, sSortilin S316E mutant; experiment: Surface plasmon resonance: ligand binding to purified S316E mutant sSortilin compared with wt sSortilin; settings: compared with wtSortilin, SPR
Protocol: as §1

[2] = molecular target: T3, Soluble Sortilin (sSortilin), luminal …; experiment: SPR (BIAcore 3000), immobilised sSortilin
Protocol: All measurements were performed on a BIAcore 3000 instrument (Biacore Sweden) maintained at 20° C. A continuous flow of buffer F (10 mM HEPES pH=7.4, 150 mM (NH₄)₂SO₄, 1.5 mM CaCl₂, 1.5 mM EGTA and 0.005% Tween-20) was passed over the CM5 chip sensor surface at 5 μl/min.

sSortilin S316E mutant [3] = molecular target: T4, sSortilin S316E mutant; experiment: SPR, immobilised S316E sSortilin
Protocol: as §1, with “For calciumfree conditions, HBS containing 20 mM EDTA was used as sample as well as running buffer.” left out

Molecule	inhibition of Sortilin's binding of its own propeptide (Sort-pro) (immobilized sSortilin; SPR)	binding to S316E mutant sSortilin (sSortilin S316E mutant [1])	also measured
Arg8-Arg-Pro-Tyr-Ile-Leu13-NH2 [reference compound]	fails to inhibit	–	–
Arg9-Pro-Tyr-Ile-Leu13 [reference compound]	equally effective	–	–
Sort-pro: Sortilin's own propeptide (amino acid residues 34-77 of SEQ ID NO. 1), used fused to GST (QDRLDAPPPPAAPLPRWSGPIGVSWGLRAAAAGGAFPRGGRWRR; also: fused to GST)	–	no binding	–
Tyr-Ile-Leu [Tyr11-Ile-Leu13]	full inhibition	–	affinity for Sortilin (summary statement) (immobilized sSortilin): high affinity; inhibition of binding of the prodomain of NGF to sSortilin (immobilized sSortilin; GST-tagged propeptide of NGF, SPR, FIG. 3C): hampers binding; inhibition of binding of RAP to sSortilin (immobilized sSortilin; SPR, FIG. 3D): hampers binding
B1	–	–	Kd [2]: ~10 nM
B2	–	did bind	–
B3	–	did bind	–
B4	–	–	binding result (sSortilin S316E mutant [3]): no binding
